Assay results: patent publication US20240309105A1 (Boehringer Ingelheim, published 2024)
Changes are numbered by the printed parent chain. Values belong to the molecule of their own block, whether it stands above or below them.

How the values were obtained:
human CD40 on cells [1] = molecular target: T1, human CD40 on cells (human, UniProt P25942 21-277); assay: cell-based or functional assay
human CD40 on cells [2] = molecular target: T1, human CD40 on cells; assay: FACS on B cells in whole blood of healthy subjects; 240 mg SC dose group, Day 78
human CD40 on cells [3] = molecular target: T1, human CD40 on cells; assay: binding to human B cells
human CD40 on cells [4] = molecular target: T1, human CD40 on cells; assay: FACS on B cells in whole blood of healthy subjects, free CD40 detected with excess FITC-labeled antibody; 72 hours after a single 80 mg SC dose
human CD40 on cells [5] = molecular target: T1, human CD40 on cells; assay: FACS on B cells in whole blood of healthy subjects, free CD40 detected with excess FITC-labeled antibody; 72 hours after a single 120-240 mg SC dose
human CD40 on cells [6] = molecular target: T1, human CD40 on cells; assay: FACS on B cells in whole blood of healthy subjects; after the fourth once-weekly SC dose, all doses, until Day 39
human CD40 on cells [7] = molecular target: T1, human CD40 on cells; assay: FACS on B cells in whole blood of healthy subjects; 180 mg SC dose group, Day 64
[8] = molecular target: T2, cynomolgus monkey CD40 on cells (cynomolgus monkey, UniProt G7PG38 21-278); assay: ratio of binding EC50, human over cynomolgus; ratio > 1 means increased binding to Cyno compared to Human
T2 construct: whole, on cells; Cell surface CD40 on cynomolgus B cells and platelets; also called Cyno CD40; CD40 on cynomolgus monkey B cells and platelets

human CD40 on cells [9] = molecular target: T1, human CD40 on cells; assay: cell binding, flow cytometry (cell line not given)
Protocol: The specific binding of humanized antibodies to cellular CD40 was analyzed by flow cytometry using human CD40-transfected HEK293 cells. Concentration-dependent binding of Antibody A, Antibody B, and Antibody C was observed. […] No binding was detected on CD40 negative cells such as non-transfected HEK293 cells or the T cell line HSB-2 thus confirming selective binding to CD40 (data not shown).

human CD40-Fc protein = molecular target: T3, human CD40-Fc protein (human, UniProt P25942 21-193); assay: ForteBio Octet, human CD40-Fc, with and without human serum
T3 construct: also called recombinant CD40 protein; not shown: Fc part
T3 sequence (P25942 21-193 limits assumed): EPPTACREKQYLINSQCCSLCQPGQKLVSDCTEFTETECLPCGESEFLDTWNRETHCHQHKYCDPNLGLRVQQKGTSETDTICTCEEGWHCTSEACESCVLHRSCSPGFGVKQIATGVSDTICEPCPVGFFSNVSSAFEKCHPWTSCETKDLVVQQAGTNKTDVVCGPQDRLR
Protocol: Due to antibody and CD40-Fc bivalency avidity effects prevent Kds below 100 pM from being determined accurately. In addition, the binding to CD40-Fc was analyzed in the absence and presence of 50% human serum and no significant effect of serum on binding was observed (data not shown)

human CD40 on cells [10] = molecular target: T1, human CD40 on cells; assay: cell-based or functional assay; remark: listed apart in the source
human CD40 on cells [11] = molecular target: T1, human CD40 on cells; assay: cell-based or functional assay; remark: listed apart in the source
human CD40 on cells [12] = molecular target: T1, human CD40 on cells; assay: flow cytometry, human CD40-transfected HEK293 cells
human CD40 on cells [13] = molecular target: T1, human CD40 on cells; assay: FITC-labeled antibody on Ramos cells

T1 sequence (P25942 21-277): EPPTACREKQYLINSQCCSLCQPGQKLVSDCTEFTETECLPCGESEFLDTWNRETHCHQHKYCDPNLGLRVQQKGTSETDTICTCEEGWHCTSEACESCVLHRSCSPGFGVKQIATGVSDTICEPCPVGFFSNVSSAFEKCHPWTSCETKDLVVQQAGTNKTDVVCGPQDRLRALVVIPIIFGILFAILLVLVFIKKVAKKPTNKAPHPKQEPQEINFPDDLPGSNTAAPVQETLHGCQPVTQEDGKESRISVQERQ

inhibition of CD54 upregulation after the fourth once-weekly SC dose, all doses, up to Day 39 (human CD40 on cells [1]): > 90% | inhibition of CD54 upregulation, 80 mg SC single dose, first post-dose measurement (72 hours) (human CD40 on cells [1]): 87% | inhibition of CD54 upregulation, 80 mg SC, Day 7 post dose (human CD40 on cells [1]): 95% | inhibition of CD54 upregulation, 180 mg group, Day 64 (human CD40 on cells [1]): 89% | inhibition of CD54 upregulation, 240 mg group, Day 78 (human CD40 on cells [1]): 51% | inhibition of CD54 upregulation, all other doses (120-240 mg SC), from 72 hours onwards (human CD40 on cells [1]): 95% | inhibition of CD54 upregulation, higher doses (120-240 mg SC), 72 hours after the first dose (human CD40 on cells [1]): > 90% | CD40 receptor occupancy (RO) (human CD40 on cells [2]): 68% | EC90 (human CD40 on cells [3]): 6.85 nM | CD40 receptor occupancy (RO) (human CD40 on cells [4]): 89% | CD40 receptor occupancy (RO) (human CD40 on cells [5]): 94 to 95% | CD40 receptor occupancy (RO) (human CD40 on cells [6]): > 90% | CD40 receptor occupancy (RO) (human CD40 on cells [7]): 79%
Molecule: an antibody of the present invention (BI 655064)

Species cross-react.: Hu/Cyno Binding (EC50 ratios) [8]: 3 ratio | EC50 (human CD40 on cells [9]): 1.2 nM | Kd (human CD40-Fc protein): < 0.1 nM | B cell proliferation: Agonism (SI*) (human CD40 on cells [10]): < 2 SI (Stimulation Index)
B1: Antibody A (antibody, human IgG1, kappa, L234A L235A, V domains shown)
VH: EVQLVESGGGLVKPGGSLRLSCAASGFTFSDYGMHWVRQAPGKGLEWVAYISSGNRIIYYADTVKGRFTISRDNAKNSLYLQMNSLRAEDTALYYCARQDGYRYAMDYWAQGTLVTVSS
VL: DIVMTQSPDSLAVSLGERATMSCKSSQSLLNSGNQKNYLTWHQQKPGQPPKLLIYWTSTRESGVPDRFSGSGSGTDFTLTISSLQAEDVAVYYCQNDYTYPLTFGGGTKVEIKR
notes: also called humanized 20E2

Species cross-react.: Hu/Cyno Binding (EC50 ratios) [8]: 2 ratio | EC50 (human CD40 on cells [9]): 1.5 nM | Kd (human CD40-Fc protein): < 0.1 nM | B cell proliferation: Agonism (SI*) (human CD40 on cells [10]): < 2 SI (Stimulation Index)
B2: Antibody B (antibody, human IgG1, kappa, L234A L235A, V domains shown)
VH: B1 VH with L93V, A110G
VL: B1 VL with R18K, A19V, M21I, S22N
notes: also called humanized 20E2

EC50 (human CD40 on cells [9]): 0.9 nM | B cell proliferation assay, average IC50 (human CD40 on cells [11]): ~0.02 nM | Kd (human CD40-Fc protein): < 0.1 nM | EC50 (human CD40 on cells [12]): ~1 nM | B cell proliferation: Agonism (SI*) (human CD40 on cells [10]): < 2 SI (Stimulation Index)
B3: 4D11 (Kirin/Astellas) anti-CD40 antibody (antibody, V domains shown)
VH: QLQLQESGPGLLKPSETLSLTCTVSGGSISSPGYYGGWIRQPPGKGLEWIGSIYKSGSTYHNPSLKSRVTISVDTSKNQFSLKLSSVTAADTAVYYCTRPVVRYFGWFDPWGQGTLVTVSS
VL: AIQLTQSPSSLSASVGDRVTITCRASQGISSALAWYQQKPGKAPKLLIYDASNLESGVPSRFSGSGSGTDFTLTISSLQPEDFATYYCQQFNSYPTFGQGTKVEIK

Species cross-react.: Hu/Cyno Binding (EC50 ratios) [8]: 1 ratio | EC50 (human CD40 on cells [9]): 1.7 nM | Kd (human CD40-Fc protein): < 0.1 nM | B cell proliferation: Agonism (SI*) (human CD40 on cells [10]): < 2 SI (Stimulation Index)
B4: Antibody C (antibody, human IgG1, kappa, L234A L235A, V domains shown)
VH: QVQLVQSGAEVKKPGASVKVSCTASGFNIKDYYVHWVKQAPGQGLEWMGRIDPEDGDSKYAPKFQGKATMTADTSTSTVYMELSSLRSEDTAVYYCTTSYYVGTYGYWGQGTLVTVSS
VL: DIQMTQSPSSLSASVGDRVTITCSASSSVSYMLWFQQKPGKAPKLLIYSTSNLASGVPSRFSGSGSGTDFTLTISSLQPEDFATYYCQQRTFYPYTFGGGTKVEIKR
notes: also called humanized 2H11

binding result (human CD40 on cells [13]): binds
B5: 2H11 (antibody, V domains shown)
VH: EVQLQQSGAELVRPGASVKLSCTASGFNIKDYYVHWVKQRPEKGLEWIGRIDPEDGDSKYAPKFQGKATMTADTSSNTAYLHLSSLTSEDTAVYYCTTSYYVGTYGYWGQGTTLTVSS
VL: QIVLTQSPAIMSASPGEKVTITCSASSSVSYMLWFQQKPGTSPKLWIYSTSNLASGVPARFGGSGSGTSYSLTISRMEAEDAATYYCQQRTFYPYTFGGGTKLEIK
notes: Mouse monoclonal antibody; also called murine anti-CD40 mAb 2H11
